The target of experiment [1] is DMF5 TCR.
Experiment [2] has as its target DMF5 TCR. Description: flow cytometry of Jurkat/MA cells transduced with DMF5, stained with the pooled barcoded tetramer library.

With “CMVpp65/HLA-A*02:01 tetramer (from UniProt P61769 21-119) (peptide-MHC)”, the percent tetramer-positive cells in the experiment with DMF5 TCR [1] was 0.1%. The substance “MART-1/HLA-A*02:01 tetramer (from UniProt P61769 21-119) (peptide-MHC)” came in with a percent DMF5 positive cells with DMF5 TCR [2] of 33%.

The record behind these values is patent US20210371499A1.
